For one test, the system named is AR. Briefly: AR transactivation assay, MMTV-CAT reporter, transient transfection (Example 1). Type of test: cell-based, human. To be noted: DU145 cells; wild type AR; 1 nM DHT. The method, then: Human prostate cancer DU145 or PC3 cells, or human lung carcinoma cells NCI H1299 were grown in Dulbecco's minimal essential medium (DMEM) containing penicillin (25 U/ml), streptomycin (25˜g/ml), and 5% fetal calf serum (FCS). One hour before transfection, the medium was changed to DMEM with 5% charcoal-stripped FCS. […] A β-galactosidase expression plasmid, pCMV-β-gal, was used as an internal control for transfection efficiency.
The medium was changed 24 hr posttransfection and the cells treated with either steroid hormones or hydroxyflutamide, and cultured for an additional 24 hr. Cells were harvested and assayed for CAT activity after the cell lysates were normalized by using β-galactosidaseas an internal control. Chloramphenicol acetyltransferase (CA) activity was visualized by PhosphorImager (Molecular Dynamics) and quantitated by ImageQuant software (Molecular Dynamics).

A further test has as its target T1, GR (Homo sapiens, UniProt P04150).
T1 sequence (P04150 1-777): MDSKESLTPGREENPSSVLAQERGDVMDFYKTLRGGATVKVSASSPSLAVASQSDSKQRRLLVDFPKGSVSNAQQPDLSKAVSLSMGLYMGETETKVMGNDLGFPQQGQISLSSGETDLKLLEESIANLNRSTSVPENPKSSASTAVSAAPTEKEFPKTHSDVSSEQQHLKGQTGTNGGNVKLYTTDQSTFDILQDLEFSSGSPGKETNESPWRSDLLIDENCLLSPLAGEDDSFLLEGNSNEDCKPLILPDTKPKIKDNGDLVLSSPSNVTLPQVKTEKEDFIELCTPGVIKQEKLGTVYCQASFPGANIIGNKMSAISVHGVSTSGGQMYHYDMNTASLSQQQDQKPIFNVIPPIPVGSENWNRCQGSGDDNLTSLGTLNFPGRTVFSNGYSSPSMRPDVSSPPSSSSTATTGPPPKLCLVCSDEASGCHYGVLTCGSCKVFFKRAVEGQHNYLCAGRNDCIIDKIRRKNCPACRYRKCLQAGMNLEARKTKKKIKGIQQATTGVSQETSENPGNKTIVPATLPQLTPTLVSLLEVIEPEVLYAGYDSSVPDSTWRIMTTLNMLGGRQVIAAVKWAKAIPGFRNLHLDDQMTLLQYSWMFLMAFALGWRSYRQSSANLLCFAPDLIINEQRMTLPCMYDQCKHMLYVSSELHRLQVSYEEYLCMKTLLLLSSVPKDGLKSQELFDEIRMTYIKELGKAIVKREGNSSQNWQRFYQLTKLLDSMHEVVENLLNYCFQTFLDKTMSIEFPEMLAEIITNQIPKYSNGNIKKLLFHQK
Briefly: GR transactivation with ARA70 in DU145 cells (Example 3). Type of test: cell-based. Further details: expressed in transfected cells; host or cells: DU145. How it is done:
411. Human prostate cancer DU145 and PC-3 cells were maintained in […] (DMEM) containing penicillin (25 U/ml), streptomycin (25 μg/ml), and 5% fetal calf serum (FCS). Human LNCaP cells were maintained in RPMI containing penicillin (25 U/ml), streptomycin (25 μg/ml), and 10% FCS. Transfections were performed using the calcium phosphate precipitation method, as previously described (Dynlacht et al. (1991) Cell 66, 563-576). Briefly, 4×10^5 cells were plated on 60-mm dishes 24 hours before transfection, and the medium was changed to DMEM with 5% charcoal-dextran stripped FCS (CS-FBS) one hour before transfection. Transfection medium contained a constant amount of reporter plasmid and indicated amounts of pSG5-receptor, ARA70, or pCMX-GAL fusion construct using pSG5 as a carrier to provide equal amounts of transfected DNA. Twenty-four hours after transfection, the medium was changed again, and the cells were treated with DHT or other treatments. After another 24 hours, the cells were harvested for chloramphenicol transferase (CAT) or luciferase assays. At least three independent experiments were carried out in each case. Superfect (Qiagen) was used for transfection in LNCaP cells. The transfection conditions followed the manufacturer's protocol. […]

The target of a further test is T2, ER-α (Homo sapiens, UniProt P03372).
T2 sequence (P03372 1-595): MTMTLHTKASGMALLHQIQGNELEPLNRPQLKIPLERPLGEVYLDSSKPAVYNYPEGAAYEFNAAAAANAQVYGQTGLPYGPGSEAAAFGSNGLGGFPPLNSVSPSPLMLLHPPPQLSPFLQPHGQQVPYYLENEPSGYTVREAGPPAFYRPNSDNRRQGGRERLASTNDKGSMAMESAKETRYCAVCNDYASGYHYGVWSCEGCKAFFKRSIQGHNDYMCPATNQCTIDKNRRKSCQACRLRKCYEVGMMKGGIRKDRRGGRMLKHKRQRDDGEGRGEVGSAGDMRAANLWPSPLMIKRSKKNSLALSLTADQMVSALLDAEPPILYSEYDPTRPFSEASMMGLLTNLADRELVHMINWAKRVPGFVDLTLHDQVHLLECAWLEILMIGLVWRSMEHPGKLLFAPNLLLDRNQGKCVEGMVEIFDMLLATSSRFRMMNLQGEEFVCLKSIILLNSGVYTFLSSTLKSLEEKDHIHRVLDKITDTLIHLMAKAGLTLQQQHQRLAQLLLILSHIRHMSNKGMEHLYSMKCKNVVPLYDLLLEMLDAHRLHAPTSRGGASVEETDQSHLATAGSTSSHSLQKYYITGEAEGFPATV
Briefly: ER-α transactivation reporter assay (ERE-Luc) with SV. Type of test: cell-based. The method, then:
42. […] (A) The interaction of SV with AR, GR, PPAR-γ and ER-α is tested in mammalian two-hybrid assay. One μg plasmids expressing Gal4(DBD)-AR, GR, PPAR-γ or ER-α was co-transfected with 4 μg plasmids expressing VP16 or VP16-SVn to COS-1 cells. […] The assay method was the same as described in FIG. 29. Relative activities of ligand treatment to EtOH treatment are shown. (B) The coactivation function of SV in different receptors was assayed using reporter gene study. MMTV-Luc, PPRE-Luc, ERE-Luc are the reporter genes for AR, GR, PPAR-γ, and ER-α respectively. Lanes 1, 5, 9 and 13 are regarded as 1 fold in each panel.
475. In AR transactivation activity assays, transfections were performed using SuperFect (Qiagen, Chatsworth, Calif.) following protocols described in manual provided by Qiagen. Briefly, cells were plated on 35 mm dishes and after 24 h were transfected using the SuperFect kit. The total DNA amount was adjusted to 2 μg with pSG5 or pEGFP vectors. The medium was changed to DMEM with 10% CD-FBS 2 h after transfection. After 24 h, the DMEM with 10% CD-FBS was changed again, and the cells were treated with various steroids. Cells were harvested after 24 h for dual-luciferase assay as described in protocol provided by Promega. At least three independent experiments were carried out in each case.

AR, sequence (P10275 whole entry): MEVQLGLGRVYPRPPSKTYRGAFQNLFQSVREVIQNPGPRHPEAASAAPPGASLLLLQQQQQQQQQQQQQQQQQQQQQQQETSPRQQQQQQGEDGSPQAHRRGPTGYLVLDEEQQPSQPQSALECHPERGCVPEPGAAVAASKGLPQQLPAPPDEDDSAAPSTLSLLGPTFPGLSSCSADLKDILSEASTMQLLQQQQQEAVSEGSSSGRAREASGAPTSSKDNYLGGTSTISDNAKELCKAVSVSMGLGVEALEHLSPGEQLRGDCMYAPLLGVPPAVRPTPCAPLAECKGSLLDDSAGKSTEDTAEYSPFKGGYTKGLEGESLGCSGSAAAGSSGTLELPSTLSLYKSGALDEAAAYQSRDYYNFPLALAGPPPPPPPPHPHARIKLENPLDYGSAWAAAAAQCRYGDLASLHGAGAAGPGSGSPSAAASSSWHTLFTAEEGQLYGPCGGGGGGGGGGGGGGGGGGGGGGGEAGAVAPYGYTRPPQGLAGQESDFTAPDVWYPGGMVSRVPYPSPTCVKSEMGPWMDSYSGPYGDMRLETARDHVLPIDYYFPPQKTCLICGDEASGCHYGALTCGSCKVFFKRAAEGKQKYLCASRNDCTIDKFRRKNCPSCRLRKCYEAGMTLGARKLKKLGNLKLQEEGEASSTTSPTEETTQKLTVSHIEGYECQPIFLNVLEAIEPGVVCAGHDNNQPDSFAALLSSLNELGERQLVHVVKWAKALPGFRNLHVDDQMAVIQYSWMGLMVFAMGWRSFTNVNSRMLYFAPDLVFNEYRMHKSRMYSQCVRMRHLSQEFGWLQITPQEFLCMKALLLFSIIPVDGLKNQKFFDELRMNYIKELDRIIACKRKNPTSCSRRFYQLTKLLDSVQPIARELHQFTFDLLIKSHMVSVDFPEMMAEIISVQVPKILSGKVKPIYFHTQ

Regarding “ARA70: ligand-enhanced AR coregulator, full length ARA70”, the “AR transcription activity with cotransfected coactivator” value in the test with AR stood at 36 fold. Further, in the test with GR, the “enhancement of GR transactivation” value was 2-3 fold.
For the substance “SV: supervillin, 205 kDa actin binding protein; bovine SV (a.a. 1-1792) used in reporter assays”, the “effect on the transactivation of ER-α” value with ER-α is recorded as “little effect”.

The record behind these values is patent US20060270591A1, “Androgen receptor coregulators” (priority 2002, published 2006).
